Target: mouse IgG
Assay: not given
Details: literature IgG-binding peptide listed in Table 3; read-out: KD (equilibrium dissociation constant), literature value; cited from earlier work
Source text: Table 3 Equilibrium dissociation constants (KD) for peptide mouse IgG interaction determined by SPR. | column: KD, µM

Molecule | Kd [µM]
HFRRHL | 26
HWRGWV | 10

Target: polyclonal mouse IgG (mouse)
Assay: SPR; antibody immobilised by amine coupling on an HC200 chip (Reichert SR7500DC); peptides flowed in HBS-EP (pH 7.4, 0.01 M HEPES, 0.15 M NaCl, 3 mM EDTA, 0.005% Tween 20); multiple kinetics mode
Details: not given

Kd [µM] | Molecule
14 | GRIHGPR [IgG BP 1]
50 | GIHPFGR [IgG BP 2]
20 | GEPFSIP [IgG BP 3]
60 | SHSGIFR [IgG BP 4]

Source: publication PMC6631230, “Efficient Screening of Combinatorial Peptide Libraries by Spatially Ordered Beads Immobilized on Conventional Glass Slides” (High-Throughput, 2019)
